Test results from article PMC4491196.

Biological target: Dnmt3a (ADD domain, ADD3a) ADD domain, 479-610 or 476-611 (UniProt Q9Y6K1)
Assay: biotin-peptide pull-down, Coomassie
Conditions: reference: unmodified H3 peptide; sites S10

binding against the reference: same
Substance: histone H3 (N-terminal peptides) (from UniProt P68431) H3S10ph peptide
